The target in experiment [1] is T1, AXL on the surface of human tumor cells (human, UniProt P30530 26-894).
T1 sequence: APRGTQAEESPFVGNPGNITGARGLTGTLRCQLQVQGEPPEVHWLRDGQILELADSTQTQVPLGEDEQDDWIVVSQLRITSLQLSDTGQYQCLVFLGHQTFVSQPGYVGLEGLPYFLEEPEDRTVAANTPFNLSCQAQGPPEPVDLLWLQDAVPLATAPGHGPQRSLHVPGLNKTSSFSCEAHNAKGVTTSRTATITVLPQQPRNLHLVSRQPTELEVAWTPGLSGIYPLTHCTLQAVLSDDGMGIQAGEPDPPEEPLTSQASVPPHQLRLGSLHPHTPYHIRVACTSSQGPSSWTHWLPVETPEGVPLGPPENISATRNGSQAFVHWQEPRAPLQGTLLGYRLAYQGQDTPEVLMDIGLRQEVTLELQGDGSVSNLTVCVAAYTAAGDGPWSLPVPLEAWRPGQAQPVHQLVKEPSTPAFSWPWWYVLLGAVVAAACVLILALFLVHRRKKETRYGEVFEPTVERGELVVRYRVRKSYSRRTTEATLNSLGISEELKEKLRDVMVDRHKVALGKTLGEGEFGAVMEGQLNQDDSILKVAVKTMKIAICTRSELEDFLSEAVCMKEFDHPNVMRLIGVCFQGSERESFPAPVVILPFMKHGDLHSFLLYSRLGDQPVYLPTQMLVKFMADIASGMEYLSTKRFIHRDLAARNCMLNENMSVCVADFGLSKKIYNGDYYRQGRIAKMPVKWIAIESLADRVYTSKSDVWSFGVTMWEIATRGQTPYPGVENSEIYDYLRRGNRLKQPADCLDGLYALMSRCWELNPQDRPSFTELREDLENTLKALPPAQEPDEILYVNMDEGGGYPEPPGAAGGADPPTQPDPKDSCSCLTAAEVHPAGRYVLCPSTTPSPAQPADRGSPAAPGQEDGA
Description: cell-based or functional assay.

Experiment [2] deals with T2, TROP2 (Beijing Yiqiao Shenzhou Biotechnology Co., Ltd.) (UniProt P09758 27-274).
T2 sequence (looked up): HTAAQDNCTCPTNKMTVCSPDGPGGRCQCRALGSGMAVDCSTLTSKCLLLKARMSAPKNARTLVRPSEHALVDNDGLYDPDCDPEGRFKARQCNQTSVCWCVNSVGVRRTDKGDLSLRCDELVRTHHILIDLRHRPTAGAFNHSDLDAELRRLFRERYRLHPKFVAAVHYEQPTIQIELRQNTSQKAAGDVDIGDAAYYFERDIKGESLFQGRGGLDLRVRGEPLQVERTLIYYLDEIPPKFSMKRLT
Description: ELISA, protein coated at 1 ug/ml, OD 450 nm. As for the experimental part:
(§1) Milk (Beijing Bomed Biotechnology Co., Ltd.), BSA (BOVOGEN), CD19 (Beijing Yiqiao Shenzhou Biotechnology Co., Ltd.), TROP2 (Beijing Yiqiao Shenzhou Biotechnology Co., Ltd.), BCMA (ACRO Biosystems), CD47 (Beijing Magpel Biotechnology Co., Ltd.), CD38 (Beijing Yiqiao Shenzhou Biotechnology Co., Ltd.), Gas6 (R&D) and each protein and AXL (ACRO Biosystems) were coated with ELISA plates at 1 μg/ml at 4° C. overnight, respectively. After washing with PBST, 10% fetal bovine serum was added and blocked at 37° C. for 1 hour. The C6G12 antibody prepared in Example 3 was added and reacted at 37° C. for 1 hour. After washing with PBST, horseradish peroxidase labeled goat anti-human IgG secondary antibody (GOAT Anti human (HRP), Thermo Fisher Scientific, #31412) was added and reacted at room temperature for 30 minutes. The plates were repeatedly washed with PBST for 5 times, and dried the residual droplets as possible on absorbent paper. […] (eBioscience, #85-00-420) was added and stood at room temperature (20±5 ) in the dark for 1.5 minutes. […] stop solution was added to each well to stop the substrate reaction. The OD value was read with a microplate reader at 450 nm. The binding abilities of antibodies and proteins were analyzed.

Experiment [3] addresses T3, BCMA (ACRO Biosystems) (UniProt Q02223 1-54).
T3 sequence (looked up): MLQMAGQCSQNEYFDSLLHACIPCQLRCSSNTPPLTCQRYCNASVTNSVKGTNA
Description: ELISA, protein coated at 1 ug/ml, OD 450 nm. As for the experimental part:
as §1

Experiment [4] concerns the target CD47 (Beijing Magpel Biotechnology Co., Ltd.) (UniProt Q08722 19-139, limits assumed). Description: ELISA, protein coated at 1 ug/ml, OD 450 nm. As for the experimental part:
as §1

The target of experiment [5] is T4, CD38 (Beijing Yiqiao Shenzhou Biotechnology Co., Ltd.) (UniProt P28907 43-300).
T4 sequence (looked up): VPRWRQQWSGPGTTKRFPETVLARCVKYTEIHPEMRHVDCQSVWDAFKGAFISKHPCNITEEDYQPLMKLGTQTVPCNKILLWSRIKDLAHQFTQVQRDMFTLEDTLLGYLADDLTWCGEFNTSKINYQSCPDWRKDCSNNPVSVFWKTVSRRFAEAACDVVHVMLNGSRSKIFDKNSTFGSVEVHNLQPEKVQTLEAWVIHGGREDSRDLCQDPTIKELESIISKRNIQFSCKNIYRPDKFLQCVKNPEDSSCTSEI
Description: ELISA, protein coated at 1 ug/ml, OD 450 nm. Here is the method: as §1

For experiment [6], the target named is T5, Gas6 (R&D) (UniProt Q14393 49-678, limits assumed).
T5 sequence (looked up): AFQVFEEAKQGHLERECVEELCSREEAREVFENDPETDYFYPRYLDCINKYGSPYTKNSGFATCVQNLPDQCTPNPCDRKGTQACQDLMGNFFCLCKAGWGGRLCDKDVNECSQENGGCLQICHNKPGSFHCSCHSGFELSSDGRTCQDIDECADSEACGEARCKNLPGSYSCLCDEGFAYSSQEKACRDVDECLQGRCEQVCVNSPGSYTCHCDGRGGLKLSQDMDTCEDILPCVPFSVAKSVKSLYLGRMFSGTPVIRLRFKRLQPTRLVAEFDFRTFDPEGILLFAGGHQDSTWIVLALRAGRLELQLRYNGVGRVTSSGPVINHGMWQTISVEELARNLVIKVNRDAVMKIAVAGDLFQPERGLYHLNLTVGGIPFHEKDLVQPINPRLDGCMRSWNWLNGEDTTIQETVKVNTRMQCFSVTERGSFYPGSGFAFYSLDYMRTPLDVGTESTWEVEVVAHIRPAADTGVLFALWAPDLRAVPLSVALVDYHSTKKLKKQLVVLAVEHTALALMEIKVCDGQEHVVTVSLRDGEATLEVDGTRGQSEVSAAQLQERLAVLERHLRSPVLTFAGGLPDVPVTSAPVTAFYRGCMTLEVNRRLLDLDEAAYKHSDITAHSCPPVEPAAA
Put plainly: ELISA, protein coated at 1 ug/ml, OD 450 nm. Here is the method: as §1

For experiment [7], the target named is T6, BSA (BOVOGEN) (UniProt P02769 25-607).
T6 construct: Specificity control
T6 sequence (P02769 25-607 limits assumed): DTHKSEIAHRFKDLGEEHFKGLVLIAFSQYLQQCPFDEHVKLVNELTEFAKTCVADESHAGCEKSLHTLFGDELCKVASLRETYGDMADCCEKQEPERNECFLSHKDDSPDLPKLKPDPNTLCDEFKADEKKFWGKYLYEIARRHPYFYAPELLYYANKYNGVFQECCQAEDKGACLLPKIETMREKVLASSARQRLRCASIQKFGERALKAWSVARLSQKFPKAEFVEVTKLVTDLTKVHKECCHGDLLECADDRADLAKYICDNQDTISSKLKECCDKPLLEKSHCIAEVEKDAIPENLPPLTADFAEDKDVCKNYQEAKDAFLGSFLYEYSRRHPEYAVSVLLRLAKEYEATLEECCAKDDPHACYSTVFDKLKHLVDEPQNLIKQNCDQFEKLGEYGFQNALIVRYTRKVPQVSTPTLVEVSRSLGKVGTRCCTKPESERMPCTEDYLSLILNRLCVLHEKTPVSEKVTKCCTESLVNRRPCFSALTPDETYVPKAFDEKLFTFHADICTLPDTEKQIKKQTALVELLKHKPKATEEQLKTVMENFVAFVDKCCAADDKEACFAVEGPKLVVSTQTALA
Description: ELISA, protein coated at 1 ug/ml, OD 450 nm. Here is the method:
as §1

Experiment [8] addresses T7, CD19 (Beijing Yiqiao Shenzhou Biotechnology Co., Ltd.) (UniProt P15391 20-291).
T7 sequence (looked up): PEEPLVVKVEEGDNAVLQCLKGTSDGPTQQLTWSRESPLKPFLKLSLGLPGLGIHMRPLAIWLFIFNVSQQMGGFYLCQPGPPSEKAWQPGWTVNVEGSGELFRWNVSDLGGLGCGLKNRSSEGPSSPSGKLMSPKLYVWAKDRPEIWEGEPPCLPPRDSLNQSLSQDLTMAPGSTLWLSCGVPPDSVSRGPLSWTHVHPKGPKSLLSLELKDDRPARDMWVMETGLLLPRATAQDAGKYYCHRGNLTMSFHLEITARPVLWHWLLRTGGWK
Put plainly: ELISA, protein coated at 1 ug/ml, OD 450 nm. Here is the method: as §1

Experiment [9] has as its target T8, AXL-Fc (fusion protein of human AXL protein extracellular domain-human IgG1 Fc) (human).
T8 construct: Expressed in CHO-K1 cells
Description: ELISA, AXL-Fc coated at 1 ug/ml, anti-human Fab-HRP detection. As for the experimental part: The AXL-Fc prepared in Example 1 was coated on the ELISA plate at 1 μg/ml at 4° C. overnight. After washing with PBST, 10% fetal bovine serum was added and blocked at 37° C. for 1 hour. Different concentrations of the C6G12 antibody prepared in Example 3 were added and reacted at 37° C. for 1 hour. After washing with PBST, horseradish peroxidase-labeled goat anti-human Fab secondary antibody (Goat Anti-human IgG(Fab′)2 (HRP), Abcam) was added and reacted at 37° C. for 30 minutes. The plate was repeatedly washed with PBST for 5 times, and dried to remove residual droplets as possible by absorbent paper. 100 μl of TMB (eBioscience) was added to each well, and stood at room temperature (20±5° C.) in the dark for 1.5 minutes. 100 μl of 2N H₂SO₄ stop solution was added to each well to stop the substrate reaction. The OD value was read with a microplate reader at 450 nm. The binding ability of the C6G12 antibody to AXL-Fc was analyzed.

Experiment [10] deals with T9, AXL (Beijing Yiqiao Shenzhou Bio Technology Co., Ltd., 6xHis label, with a molecular weight of 65 Kda) (UniProt P30530 33-449).
T9 construct: Bought protein used as the mobile phase in BIACORE; not shown: 6xHis label
T9 sequence (looked up): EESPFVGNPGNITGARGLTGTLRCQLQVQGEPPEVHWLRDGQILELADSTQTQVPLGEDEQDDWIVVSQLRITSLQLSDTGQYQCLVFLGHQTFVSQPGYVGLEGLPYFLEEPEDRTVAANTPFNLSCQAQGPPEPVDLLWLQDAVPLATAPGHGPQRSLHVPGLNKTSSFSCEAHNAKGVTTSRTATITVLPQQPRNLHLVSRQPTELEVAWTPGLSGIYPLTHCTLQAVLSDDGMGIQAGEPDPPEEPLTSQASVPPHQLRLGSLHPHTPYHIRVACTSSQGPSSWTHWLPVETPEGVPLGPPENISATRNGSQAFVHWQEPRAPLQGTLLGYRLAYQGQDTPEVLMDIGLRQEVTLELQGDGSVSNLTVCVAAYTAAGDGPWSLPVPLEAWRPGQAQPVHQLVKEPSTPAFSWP
Put plainly: SPR (BIACORE), C6G12 captured by anti-human IgG-Fc antibody, AXL-His as mobile phase. As for the experimental part:
The antibody affinity was analyzed by BIACORE biomacromolecule interaction analyzer (GE Company). The anti-human IgG-Fc antibody (purchased from Abcam) was coupled to the chip, and used to capture the C6G12 antibody with an antibody concentration set as 0.5 μg/mL and an injection time of 60 seconds. AXL (Beijing Yiqiao Shenzhou Bio Technology Co., Ltd., 6×His label, with a molecular weight of 65 Kda) was taken as the mobile phase, with 6 concentration gradients (1, 0.4, 0.16, 0.064, 0.0256, 0.01024 μg/mL), a binding time of 180 seconds, and a dissociation time of 1200 seconds.

Experiment [11] deals with T8, AXL-Fc (fusion protein of human AXL …). Description: ELISA, AXL-Fc coated at 1 ug/ml, anti-mouse IgG-HRP detection. Here is the method: The AXL-Fc prepared in Example 1 was coated on the ELISA plate at 1 μg/ml at 4° C. overnight. After washing with PBST, 10% fetal bovine serum was added and blocked at 37° C. for 1 hour. Different concentrations of the 6G12 antibodies were added and reacted at 37° C. for 1 hour. After washing with PBST, horseradish peroxidase-labeled goat anti-mouse secondary antibody (Goat Anti-mouse IgGHRP, Abcam) was added and reacted at 37° C. for 30 minutes. The plate was repeatedly washed with PBST for 5 times, and dried to remove residual droplets as possible by absorbent paper. 100 μl of TMB (eBioscience) was added into each well, and stood at room temperature (20±5 ) in the dark for 1.5 minutes. 100 μl of 2N H₂SO₄ stop solution was added to each well to stop the substrate reaction. The OD value was read with a microplate reader at 450 nm. The binding ability of the antibody to AXL-Fc was analyzed.

CD47 (Beijing Magpel Biotechnology Co., Ltd.), sequence (Q08722 19-139 limits assumed): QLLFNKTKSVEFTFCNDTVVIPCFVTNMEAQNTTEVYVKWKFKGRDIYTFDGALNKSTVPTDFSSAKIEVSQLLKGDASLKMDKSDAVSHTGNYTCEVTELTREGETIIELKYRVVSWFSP

B1: C6G12 antibody (Chimeric 6G12) (antibody, human IgG1, kappa, V domains shown)
VH: QVQLKQSGPGLVKPSQSLSLTCSVTGFSISSGYYWNWIRQFPGNKLEWMGYRSYDGSNNYNPSLKNRISITRDTSKNQFFLKLNSVTTEDTATYYCARGWLLHYTMDYWGQGTSVTVSS
VL: ELVMTQSPFSNAVTLGTSASISCRSSRSLLHSNGFTYLYWYLQKPGQSPQLLIYQMSNLASGVPDRFSSSGSGTDFTLRISRVEAEDVGVYYCGQNLELPLTFGAGTKLELKR
notes: 6G12 variable regions with a human IgG1 constant region, expressed in CHO-S cells and purified by Protein A; also called chimeric antibody
As to B1, the “internalization efficiency EC50 on human breast cancer MDA-MB-231 cells (flow cytometry, surface MFI at 4 C against 37 C)” value in [1] was found to be 0.89 ng/mL. The “internalization efficiency EC50 on human non-small cell lung cancer A549 cells (flow cytometry, surface MFI at 4 C against 37 C)” value in [1] is 0.61 ng/mL. Moreover, the “internalization efficiency EC50 on human pancreatic cancer MIA PaCa-2 cells (flow cytometry, surface MFI at 4 C against 37 C)” value in experiment [1] is 1.3 ng/mL. Besides, the “internalization efficiency EC50 on renal clear cell adenocarcinoma 786-O cells (flow cytometry, surface MFI at 4 C against 37 C)” value in experiment [1] stood at 1.5 ng/mL. In addition, the binding result in [2], in experiment [3], in [4], in experiment [5], in experiment [6] and in experiment [7] was “no binding” in each case. In [8], the binding result is recorded as “no binding”. Moreover, the EC50 in [9] was 19.4 ng/mL. This molecule displayed a Kd in [10] of 154 pM. This molecule also gave a koff in [10] of 0.000402 s⁻¹. The kon in experiment [10] was 2.61e+06 M⁻¹ s⁻¹.

B2: 6G12 antibody (antibody, V domains shown)
VH: B1 VH
VL: ELVMTQSPFSNAVTLGTSASISCRSSRSLLHSNGFTYLYWYLQKPGQSPQLLIYQMSNLASGVPDRFSSSGSGTDFTLRISRVEAEDVGVYYCGQNLELPLTFGAGTKLELK
notes: also called monoclonal antibody 6G12
Turning to B2, in experiment [11], the response was half-maximal at 669 ng/mL (EC50).

Source of the values: patent US20210230295A1 (HANGZHOU SUMGEN BIOTECH, published 2021).
